Columns and labels:
[1] = molecular target: Ede1_rhodamine (yeast) (UniProt P34216); assay: fluorescence polarisation
[2] = molecular target: GST-DRM2 UBA1 (Arabidopsis); assay: SPR
[3] = molecular target: GST-Ede1 UBA (yeast) (UniProt P34216); assay: SPR
[4] = molecular target: GST-hHR23A UBA1 (human); assay: SPR
[5] = molecular target: Ddi1 UBA, fluorescent free domain (yeast) (UniProt P40087); assay: fluorescence polarisation
[6] = molecular target: Dsk2 UBA, fluorescent free domain (yeast) (UniProt P48510); assay: fluorescence polarisation
[7] = molecular target: fluorescein-labeled hHR23A-UBA1 (human); assay: fluorescence polarisation
[8] = molecular target: GST-His/GST-Ede1 heterodimer of the functionally monomeric mixture (not stated | yeast) (UniProt P34216); assay: SPR

Ede1_rhodamine (yeast), sequence (P34216 1338-1380): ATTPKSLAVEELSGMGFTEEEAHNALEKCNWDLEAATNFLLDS
GST-Ede1 UBA (yeast), sequence (P34216 1338-1380): as above
Ddi1 UBA, fluorescent free domain (yeast), sequence (P40087 389-428): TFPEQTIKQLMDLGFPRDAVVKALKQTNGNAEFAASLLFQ
Dsk2 UBA, fluorescent free domain (yeast), sequence (P48510 327-371): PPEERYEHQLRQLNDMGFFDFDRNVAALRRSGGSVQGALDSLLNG

## K48-linked diubiquitin (from UniProt P0CG48 1-76)
[1]
  Kd: 86 µM
[2]
  Kd: 140 µM
[3]
  Kd: 110 µM
[4]
  Kd: 36 µM

## K48-linked tetraubiquitin (from UniProt P0CG48 1-76)
[5]
  Kd: 50 µM
[6]
  Kd: 1.4 µM
[1]
  Kd: 31 µM
[7]
  Kd: 9 µM
[3]
  Kd: 25 µM
[8]
  Kd: 44 µM

## K63-linked diubiquitin (from UniProt P0CG48 1-76)
[1]
  Kd: 120 µM
[2]
  Kd: 89 µM
[3]
  Kd: 48 µM
[4]
  Kd: 26 µM

## K63-linked tetraubiquitin (from UniProt P0CG48 1-76)
[5]
  Kd: 92 µM
[6]
  Kd: 2.2 µM
[1]
  Kd: 54 µM
[7]
  Kd: 30 µM
[3]
  Kd: 6 µM
[8]
  Kd: 23 µM
[4]
  Kd: 4.7 µM
